Reference: patent US20240376163

Tested on: T1, biotin-p-CABIN1-L-1 (phosphorylated CABIN1-L-1)
T1 sequence: AAAMAGFPPEITVTPPTP
Test: SPR (Biacore T200), biotin-labeled peptide captured on SA chip, His-tagged CNA at 1.25, 2.5, 5 and 10 nM, 25° C.

In the case of “His-tagged CNA (purified; isoform not stated)”, the fold increase of binding affinity (phosphorylated vs unphosphorylated CABIN1 peptide) is reported as 3 fold.
